Residue numbers refer to the chain shown, from its start. One block for each binder: values may come before it.
Key:
human VEGF [1] = target: T1, human VEGF (human, UniProt P15692 207-395, biotinylated (site not stated)); test: Biacore SPR, human VEGF
T1 construct: Biotinylated human VEGF generated internally; also called hVEGF; hVEGF-biotin
T1 sequence: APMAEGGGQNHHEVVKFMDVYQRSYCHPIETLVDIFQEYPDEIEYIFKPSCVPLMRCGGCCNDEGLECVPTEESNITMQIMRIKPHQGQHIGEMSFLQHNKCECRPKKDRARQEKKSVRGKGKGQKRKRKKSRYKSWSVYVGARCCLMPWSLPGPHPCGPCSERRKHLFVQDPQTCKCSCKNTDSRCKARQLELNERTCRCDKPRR

human VEGF [2] = target: T1, human VEGF; test: Biacore SPR, hVEGF
human VEGF [3] = target: T1, human VEGF; test: Biacore SPR, hVEGF; remark: listed apart in the source
Experimental: At first, individual CDR residues were substituted and the affinity for hVEGF was measured by Biacore as described below. […] HC8T, and HC9T and the affinity of the resulting peptide-tagged Fab for both HA and hVEGF was measured by Biacore as described below (Table 17).
Affinity of optimized HA-binding peptide tags for HA and human VEGF were measured by Biacore. […] In order to determine target kinetics, two different formats were utilized. […] The second format is an anti-fab capture method in which the fab protein samples are captured and the target proteins flowed over at various concentrations.
The sample compartment which includes the analytes, ligands, and regeneration buffer, is kept at 15° C. All other running conditions were carried out at either 25° C. or 37° C. in 1×HBSE+P buffer. […] Data was collected at 10 Hz and analyzed using the Biacore T200 Evaluation Software (GE Healthcare®). This program uses a global fitting analysis method for the determination of rate and affinity constants for each interaction.

Kd (human VEGF [1]): 5.1 pM
koff (human VEGF [1]): 1.38e-05 s⁻¹
kon (human VEGF [1]): 2.71e+06 M⁻¹ s⁻¹
B1: NVS4 (Fab)
heavy: EVQLVESGGGLVQPGGSLRLSCTASGFSLTDYYYMTWVRQAPGKGLEWVGFIDPDDDPYYATWAKGRFTISRDNSKNTLYLQMNSLRAEDTAVYYCAGGDHNSGWGLDIWGQGTLVTVSSASTKGPSVFPLAPSSKSTSGGTAALGCLVKDYFPEPVTVSWNSGALTSGVHTFPAVLQSSGLYSLSSVVTVPSSSLGTQTYICNVNHKPSNTKVDKRVEPKSC
light: EIVMTQSPSTLSASVGDRVIITCQASEIIHSWLAWYQQKPGKAPKLLIYLASTLASGVPSRFSGSGSGAEFTLTISSLQPDDFATYYCQNVYLASTNGANFGQGTKLTVLKRTVAAPSVFIFPPSDEQLKSGTASVVCLLNNFYPREAKVQWKVDNALQSGNSQESVTEQDSKDSTYSLSSTLTLSKADYEKHKVYACEVTHQGLSSPVTKSFNRGEC
notes: Fab version of the 1008 scFv; also called untagged anti-VEGF Fab

Kd (human VEGF [2]): 2.34 pM
koff (human VEGF [2]): 0.000128 s⁻¹
kon (human VEGF [2]): 5.49e+07 M⁻¹ s⁻¹
B3: NVS103 (Fab)
heavy: B1 heavy
light: DIVMTQSPSTLSASVGDRVIITCQASEIIHSWLAWYQQKPGKAPKLLIYLASTLASGVPSRFSGSGSGAEFTLTISSLQPDDFATYYCQNVYLASTNGANFGQGTKLTVLKRTVAAPSVFIFPPSDEQLKSGTASVVCLLNNFYPREAKVQWKVDNALQSGNSQESVTEQDSKDSTYSLSSTLTLSKADYEKHKVYACEVTHQGLSSPVTKSFNRGECGSGGGACGVYHREAQSGKYYLTYAEAKAVCEFEGGHLATYKQLLCAQKIGFHVCAAGWMAKGRVGYPIVKPGPNCGFGKTGIIDYGIRLNRSERWDAYCYNPHA
notes: Tag NVS-AX at the C-terminus of the NVS4 light chain

Kd (human VEGF [2]): 7.1 pM
koff (human VEGF [2]): 0.000219 s⁻¹
kon (human VEGF [2]): 3.09e+07 M⁻¹ s⁻¹
B4: NVS101 (Fab)
heavy: B1 heavy
light: ACGVYHREAQSGKYYLTYAEAKAVCEFEGGHLATYKQLLCAQKIGFHVCAAGWMAKGRVGYPIVKPGPNCGFGKTGIIDYGIRLNRSERWDAYCYNPHAGGGSDIVMTQSPSTLSASVGDRVIITCQASEIIHSWLAWYQQKPGKAPKLLIYLASTLASGVPSRFSGSGSGAEFTLTISSLQPDDFATYYCQNVYLASTNGANFGQGTKLTVLKRTVAAPSVFIFPPSDEQLKSGTASVVCLLNNFYPREAKVQWKVDNALQSGNSQESVTEQDSKDSTYSLSSTLTLSKADYEKHKVYACEVTHQGLSSPVTKSFNRGEC

Kd (human VEGF [2]): 1.34 pM
koff (human VEGF [2]): 4.97e-05 s⁻¹
kon (human VEGF [2]): 3.71e+07 M⁻¹ s⁻¹
B5: NVS100 (Fab)
heavy: GACGVYHREAQSGKYYLTYAEAKAVCEFEGGHLATYKQLLCAQKIGFHVCAAGWMAKGRVGYPIVKPGPNCGFGKTGIIDYGIRLNRSERWDAYCYNPHAGGGSQVQLVESGGGLVQPGGSLRLSCTASGFSLTDYYYMTWVRQAPGKGLEWVGFIDPDDDPYYATWAKGRFTISRDNSKNTLYLQMNSLRAEDTAVYYCAGGDHNSGWGLDIWGQGTLVTVSSASTKGPSVFPLAPSSKSTSGGTAALGCLVKDYFPEPVTVSWNSGALTSGVHTFPAVLQSSGLYSLSSVVTVPSSSLGTQTYICNVNHKPSNTKVDKRVEPKSC
light: B1 light
notes: Tag NVS-AX at the N-terminus of the NVS4 heavy chain

Kd (human VEGF [2]): 0.447 pM
koff (human VEGF [2]): 2.26e-05 s⁻¹
kon (human VEGF [2]): 5.06e+07 M⁻¹ s⁻¹
B8: NVS4/NVSY (Fab)
heavy: EVQLVESGGGLVQPGGSLRLSCTASGFSLTDYYYMTWVRQAPGKGLEWVGFIDPDDDPYYATWAKGRFTISRDNSKNTLYLQMNSLRAEDTAVYYCAGGDHNSGWGLDIWGQGTLVTVSSASTKGPSVFPLAPSSKSTSGGTAALGCLVKDYFPEPVTVSWNSGALTSGVHTFPAVLQSSGLYSLSSVVTVPSSSLGTQTYICNVNHKPSNTKVDKRVEPKSCGSGGGGVYHREAISGKYYLTYAEAKAVCEFEGGHLATYKQLQAAQKIGFHVCAAGWMAKGRVGYPIVKPGPNCGFGKTGIIDYGIRLNRSERWDAYCYNPHA
light: B1 light
notes: NVS4 Fab linked to peptide tag NVS-Y

Kd (human VEGF [1]): 0.161 pM
koff (human VEGF [1]): 1.19e-05 s⁻¹
kon (human VEGF [1]): 7.39e+07 M⁻¹ s⁻¹
B11: NVS3 (Fab)
heavy: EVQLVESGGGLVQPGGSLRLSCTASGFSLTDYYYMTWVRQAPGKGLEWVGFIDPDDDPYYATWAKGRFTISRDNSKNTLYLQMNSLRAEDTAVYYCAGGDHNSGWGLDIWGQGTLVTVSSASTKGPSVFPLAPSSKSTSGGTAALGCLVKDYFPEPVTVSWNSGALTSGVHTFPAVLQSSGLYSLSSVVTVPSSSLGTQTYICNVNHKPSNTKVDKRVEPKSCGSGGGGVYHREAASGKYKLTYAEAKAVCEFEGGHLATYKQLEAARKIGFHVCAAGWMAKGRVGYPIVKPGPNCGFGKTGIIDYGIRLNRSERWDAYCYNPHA
light: B1 light
notes: NVS4 Fab with HA10.2 tag at heavy chain C-terminus

Kd (human VEGF [2]): 1.43 pM
koff (human VEGF [2]): 0.000134 s⁻¹
kon (human VEGF [2]): 9.35e+07 M⁻¹ s⁻¹
B12: NVS102 (Fab)
heavy: QVQLVESGGGLVQPGGSLRLSCTASGFSLTDYYYMTWVRQAPGKGLEWVGFIDPDDDPYYATWAKGRFTISRDNSKNTLYLQMNSLRAEDTAVYYCAGGDHNSGWGLDIWGQGTLVTVSSASTKGPSVFPLAPSSKSTSGGTAALGCLVKDYFPEPVTVSWNSGALTSGVHTFPAVLQSSGLYSLSSVVTVPSSSLGTQTYICNVNHKPSNTKVDKRVEPKSCGSGGGACGVYHREAQSGKYYLTYAEAKAVCEFEGGHLATYKQLLCAQKIGFHVCAAGWMAKGRVGYPIVKPGPNCGFGKTGIIDYGIRLNRSERWDAYCYNPHA
light: B1 light
notes: Tag NVS-AX at the C-terminus of the NVS4 heavy chain

Kd (human VEGF [2]): 10.4 pM
koff (human VEGF [2]): 0.000563 s⁻¹
kon (human VEGF [2]): 5.4e+07 M⁻¹ s⁻¹
B14: NVS106 (Fab)
heavy: B5 heavy with Q105E, D135N, D159Q, D160N, D204N, D212N
light: B4 light with D104E, E130Q, I131K, L153Q, T156K, S159K
notes: Tag NVS-AX at the N-terminus of the LC2 light chain and the HC4 heavy chain

Kd (human VEGF [2]): 0.741 pM
koff (human VEGF [2]): 0.000104 s⁻¹
kon (human VEGF [2]): 1.41e+08 M⁻¹ s⁻¹
B16: NVS107 (Fab)
heavy: B12 heavy with Q1E, D31N, D55Q, D56N, D100N, D108N
light: B3 light with D1E, E27Q, I28K, L50Q, T53K, S56K
notes: Tag NVS-AX at the C-terminus of the LC2 light chain and the HC4 heavy chain

Continued, binder first:

B2: NVS4/NVSX (Fab)
heavy: B8 heavy with Q265L
light: B1 light
notes: NVS4 Fab linked to peptide tag NVS-X
Kd (human VEGF [2]): 0.465 pM
koff (human VEGF [2]): 2.11e-05 s⁻¹
kon (human VEGF [2]): 4.53e+07 M⁻¹ s⁻¹

B6: NVS1 (Fab)
heavy: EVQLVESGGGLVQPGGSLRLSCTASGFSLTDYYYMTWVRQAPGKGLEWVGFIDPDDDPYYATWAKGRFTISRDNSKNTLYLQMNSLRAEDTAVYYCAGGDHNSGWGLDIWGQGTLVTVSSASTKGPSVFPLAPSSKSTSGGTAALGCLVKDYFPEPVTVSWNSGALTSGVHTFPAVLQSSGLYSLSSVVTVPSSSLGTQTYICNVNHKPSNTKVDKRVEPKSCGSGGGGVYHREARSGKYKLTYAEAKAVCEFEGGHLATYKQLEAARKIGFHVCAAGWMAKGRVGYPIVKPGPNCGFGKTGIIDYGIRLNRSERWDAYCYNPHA
light: B1 light
notes: NVS4 Fab with HA10 tag via GSGGG at heavy chain C-terminus
Kd (human VEGF [1]): 0.176 pM
koff (human VEGF [1]): 1.01e-05 s⁻¹
kon (human VEGF [1]): 5.75e+07 M⁻¹ s⁻¹

B7: LC6T (Fab, V domains shown)
VH: EVQLVESGGGLVQPGGSLRLSCTASGFSLTDYYYMTWVRQAPGKGLEWVGFIDPDDDPYYATWAKGRFTISRDNSKNTLYLQMNSLRAEDTAVYYCAGGDHNSGWGLDIWGQGTLVTVSS
VL: EIVMTQSPSTLSASVGDRVIITCQASQIIHSWLAWYQQKPGKAPKLLIYQASTLAKGVPSRFSGSGSGAEFTLTISSLQPDDFATYYCQNVYLASRNGANFGQGTKLTVLK
notes: Light chain CDR variant LC6 with tagged NVS4 heavy chain
Kd (human VEGF [3]): 1.09 pM
koff (human VEGF [3]): 9.66e-05 s⁻¹
kon (human VEGF [3]): 8.88e+07 M⁻¹ s⁻¹

B9: LC7T (Fab, V domains shown)
VH: B7 VH
VL: B7 VL with I28K, H30K, Q50L
notes: Light chain CDR variant LC7 with tagged NVS4 heavy chain
Kd (human VEGF [3]): 3.79 pM
koff (human VEGF [3]): 0.000229 s⁻¹
kon (human VEGF [3]): 6.06e+07 M⁻¹ s⁻¹

B10: NVS2 (Fab)
heavy: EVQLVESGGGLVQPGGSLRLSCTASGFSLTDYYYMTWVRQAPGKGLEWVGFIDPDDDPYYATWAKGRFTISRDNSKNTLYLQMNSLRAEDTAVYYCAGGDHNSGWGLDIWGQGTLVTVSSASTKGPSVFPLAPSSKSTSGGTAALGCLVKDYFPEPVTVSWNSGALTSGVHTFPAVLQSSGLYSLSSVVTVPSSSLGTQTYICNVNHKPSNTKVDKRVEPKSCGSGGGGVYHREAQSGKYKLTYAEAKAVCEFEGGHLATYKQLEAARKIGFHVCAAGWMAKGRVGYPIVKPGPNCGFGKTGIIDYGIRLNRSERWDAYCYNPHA
light: B1 light
notes: NVS4 Fab with HA10.1 tag at heavy chain C-terminus
Kd (human VEGF [1]): 0.195 pM
koff (human VEGF [1]): 1.05e-05 s⁻¹
kon (human VEGF [1]): 5.36e+07 M⁻¹ s⁻¹

B13: NVS104 (Fab)
heavy: B5 heavy
light: B4 light
notes: Tag NVS-AX at the N-terminus of NVS4 heavy and light chains
Kd (human VEGF [2]): 0.854 pM
koff (human VEGF [2]): 1.57e-05 s⁻¹
kon (human VEGF [2]): 1.84e+07 M⁻¹ s⁻¹

B15: NVS105 (Fab)
heavy: B12 heavy
light: B3 light
notes: Tag NVS-AX at the C-terminus of NVS4 heavy and light chains
Kd (human VEGF [2]): 0.13 pM
koff (human VEGF [2]): 3.97e-05 s⁻¹
kon (human VEGF [2]): 3.06e+08 M⁻¹ s⁻¹

From US20170290876A1 (Novartis, published 2017)
